Experimental data as given in the DeepSol protein solubility set.

Assay: soluble on expression in E. coli; label from the status in PepcDB or PDB records

Row | Sequence | soluble on expression in E. coli
1 | MRNLTFLTRCKPLAASVLALMLLGGAAKSFANNDLPDLGTAAVNTFSLEKEMIYGDAYMRVIRSSAPMLNDPVLSQYLTELGNKLVAHATGVKTPFYFFLLQNDEINAFAFFGGHVAVHTGLFLNADNESELASVLGHEITHVTQRHLARSLEAQQKTGPATVAGLLGAILLTIAVPQAGMAALATTQAMATQSKINYTRLHEKEADRIGMQILVDAGFDPNASAEFFGKLASRYRFTTTPPQMLLTHPLPESRISEARDRAQQYPHRYVPDNLNFQLAKARIQVRFSSFSDDAVLSMFEKQLNKQTYGFKEAALYGKALALFRLKKFDESEKIVDELLKIDDNNLFYIDTKTDLLNERKDYAQAIKLLEAQRNLKPTSQVINANLANIYIEAGEPAKAIPLLEDMIFLDKQNQLPYQLLNLAYKKLGNPGMEYFSNAELMALGANYKGAIDQLNFAYRASEGNQLQLARIEARIRQFKQADREMDALKLEHHHHHH | not soluble
2 | MVSLPVVLIADKLAPSTVAALGDQVEVRWVDGPDRDKLLAAVPEADALLVRSATTVDAEVLAAAPKLKIVARAGVGLDNVDVDAATARGVLVVNAPTSNIHSAAEHALALLLAASRQIPAADASLREHTWKRSSFSGTEIFGKTVGVVGLGRIGQLVAQRIAAFGAYVVAYDPYVSPARAAQLGIELLSLDDLLARADFISVHLPKTPETAGLIDKEALAKTKPGVIIVNAARGGLVDEAALADAITGGHVRAAGLDVFATEPCTDSPLFELAQVVVTPHLGASTAEAQDRAGTDVAESVRLALAGEFVPDAVNVGGGVVNEEVAPWLDLVRKLGVLAGVLSDELPVSLSVQVRGELAAEEVEVLRLSALRGLFSAVIEDAVTFVNAPALAAERGVTAEICKASESPNHRSVVDVRAVGADGSVVTVSGTLYGPQLSQKIVQINGRHFDLRAQGINLIIHYVDRPGALGKIGTLLGTAGVNIQAAQLSEDAEGPGATILLRLDQDVPDDVRTAIAAAVDAYKLEVVDLS | soluble
3 | MGSDKIHHHHHHMTNIAILGTASDVGKSIVATALCRIFSNAGVDVAPYKAQNMSNNSGVTPDGFEMGRAQIVQAQAARVAPHADMNPVLLKPNTDTGAQVVLQGKVCADKSAREYFGDTQRWAEAAFESLDRLMVRHELLVIEGAGSCAEMNLYQRDFVNFKTARRAGAAVILVADIDRGGVFAQVVGTLAVIPPEDRALVKGVIINRFRGDKSLFEGGVKMLESMTGVPVLGVIPYFRGFTIDAEDAVPLSSVVDPKQEPSGDKIGVAAIYFPHISNFTDLAPLERDPSVELHYLHRPKSLDGYKALILPGSKNVRGDLAWLETMGWRDEIEKFRKRGGIIVGLCGGYQMLGASIADPYGVEGAPGASAGLAMLPVETVLEREKALCNSVGKIAGTPFFVSGYEIHMGRTALEPGASPLLEVTERNGVATDDFDGAKSADGQVTGTYFHGFFDRPEVRTWFLRLLDGGYESPRGASVADPFELLAKHFSENLDLEKLFAIAGLSVKGEKES | not soluble
4 | KPLQRKLASGMVKKHSIIRALNKVYKRDVYFPGEEELNEVLSDEHKSGANTWEETTELNFEPDMTTVTTEDQSAKPPEQKTPSKDVLDFTQNFLQP | not soluble
5 | MYKDYPAAYQVSKGAALQVDTAFYERLRANAQQRTLVEQFEVPIRTGRAWKVKAGQVFRVTTPAGPQVGDFNVWNAHDPRERLWAARTRQLQGAHVSTHDRLWSNLPFLRPLVTITDDSLASYGIDEHGGRLHDLLGTRCDPYVKKMLTGEDFHHHCHSNLTRAVLPHGLTEFDVHDVLNIFQCTGLNHDDMYFMKACPAQKGDYLEFFAEIDLLCALSTCPGGDLSLPMWGPDAQDPLSVCRPLGVEIYNLDAALLEGWQSPERAAYNGLHGLQIAKVDWEKLEHHHHHH | not soluble
6 | EFSMEDLIPLVNRLQDAFSAIGQNADLDLPQIAVVGGQSAGKSSVLENFVGRDFLPRGSGIVTRRPLVLQLVNATTEYAEFLHCKGKKFTDFEEVRLEIEAETDRVTGTNKGISPVPINLRVYSPHVLNLTLVDLPGMTKVPVGDQPPDIEFQIRDMLMQFVTKENCLILAVSPANSDLANSDALKVAKEVDPQGQRTIGVITKLDLMDEGTDARDVLENKLLPLRRGYIGVVNRSQKDIDGKKDITAALAAERKFFLSHPSYRHLADRMGTPYLQKVLNQQLTNHIRDTLPGLRNKLQSQLLSIEKEVEEYKNFRPDKHGTDSRVDEMLRMYHALKEALSIIGNIN | soluble
7 | YTDEEWGFLQNQMICDLCEGYAIYRPRYILPDYNVYIQKGCEFLELPPPKDLDEALDGLLILYSHVPSITTYPVYIGRLDVLLEPFITDEEKDYIKIKRFLNHIDKTVPDSFCHANIGPYDTKAGRLILRAVIDLEAPTPNMTIRYDKSKTSREFAELAAKACLLVSKPSFANDAYYISDLGEEYGVASCYNALPECGGAYTLTRLRLGTIARTCKSADEMLNELLPRVAKCALSTMDKRHKFVVEESNFFNSSFLEKEGFIKRTNFTGMFAIVGLADATNHLLQCEGLNETFGKSVRGDEIATAIMDKLKEITDAHEGVYAERTGNRYLLHAQVGASNHEEDKRNAPAHRIRVGEEPTLLAHLKQSAPFHKYFPSGTGDLFAFDQTYVDHCDAVVDIIDGAFSLGYRYITTYLKNTDLIRVTGYLVKKSEVEKYRKGEVALR | not soluble
8 | MGSDKIHHHHHHMNRSGTISGNNFQSTAAQTTAGPRESRLAASVCRIAPFYDFILRRKIMRQKIPLLASFKLTFRCNLSCLACPFHQRAGEEKANMSWSLARASLDALKHQGTLIVVFEGGEPFLWRDGRHDLHDLVNYAGRLFPRVAVTTNGTFPLDVPADILWVSLDGLKETHDRLRSGSFDRVWENLEQCSHGRLFVHFTINRENRHDIRPLLEKLKGIPAFRGMTVQLFYPYGQGEASLALSDLERKTVLEEVVAMKKQGFPILNSAGRLTAMINNDWRCHDDILINVDPDGAITPGCYVKSRGRINCRNCGFSPVSEASGALDLFPGSLKAGWSIFLK | not soluble
9 | MGSDKIHHHHHHDANGVKIGVITDMSGSYADLSGKGSVLAAQMAVEEFGGKALGKPVTVLSADHQNKADIASSLARRWFDTDGVDMVIDFPNSSTALAVQEVAKQKQKIDIVSTGGAMALTNQNCSPTGFHWAWDTYSVSYPLVKRMIDQGRNSWYYITVDYAFGQSLEADFRKAVDVSGGKNVGSTKHPLNASDFSSPVVAASASKANVVVLANAGNDMINGVKAAGEFGLVKAGQTVITPSTFITDIKSLGLNTAQGLTYVDPFRLDLDEKSKDFVERYYKRHKAYPTHGQIGVYSGVLHYLKAVEAAKTVDGPAVADKMRALPVNDAFVHNGKVRADGRMVHDMYLAQAKTPAESKGPWDLVKYIATIPGDEAFRPLSASECALVKK | not soluble
10 | MGHHHHHHSHMEQFEVIKQQKEIIEHGIELFNKKPKRGIQFLQEQGMLGTSVEDIAQFLHQEERLDSTQVGDFLGDSARFNKEVMYAYVDQLDFCEKEFVSALRTFLEGFRLPGEAQKIDRLMEKFAARYIECNQGQTLFASADTAYVLAYSIIMLTTDLHSPQVKNKMTKEQYIKMNRGINDSKDLPEEYLSSIYEEIEGKKIAMKETKELT | soluble
11 | NIITVTLNMERHHFLGISIVGQSNDRGDGGIYIGSIMKGGAVAADGRIEPGDMLLQVNDVNFENMSNDDAVRVLREIVSQTGPISLTVAK | soluble
12 | MGSDKIHHHHHHMSTPIGLGLPPTPPPVLAPRRKTRQLMVGKVGVGSDHPISVQSMTTTKTHDINGTLQQIAQLTATGCDIVRVACPKTVDAEALPIIAKKSPIPVIADIHFQPKYIFAAIDAGCAAVRVNPGNIKEFDGRVKEVAKAAGDAGIPIRIGVNGGSLDKRILDKYHGKATPEALVESAMWEAGLFEEHGFGDIAISVKHSDPVLMVEAYRQLAEQSDYPLHLGVTEAGPKFMGTIKSSVAFGALLSQGIGDTIRVSLSADPVEEIKVGDQILQSLNLRPRKLEIVSCPSCGRAQVDVYSLAEEVTEALDGMEVPLRVAVMGCVVNGPGEARDADLGVASGNGKGQIFVKGEVIKTVPESQIVETLIEEAMRIAEEMDPEVLAAASASGMKAEVKVTK | not soluble
13 | MGHHHHHHGGHMSLIAITGATGQLGHYVIESLMKTVPASQIVAIVRNPAKAQALAAQGITVRQADYGDEAALTSALQGVEKLLLISSSEVGQRAPQHRNVINAAKAAGVKFIAYTSLLHADTSPLGLADEHIETEKMLADSGIVYTLLRNGWYSENYLASAPAALEHGVFIGAAGDGKIASATRADYAAAAARVISEAGHEGKVYELAGDSAWTLTQLAAELTKQSGKQVTYQNLSEADFAAALKSVGLPDGLADMLADSDVGASKGGLFDDSKTLSKLIGHPTTTLAESVSHLFNVNNEGGS | soluble
14 | GSFTMADLDDIKDGKDFRTDQPQKNIPFTLKGCGALDWGMQSRLSRIFNPKTGKTVMLAFDHGYFQGPTTGLERIDINIAPLFEHADVLMCTRGILRSVVPPATNRPVVLRASGANSILAELSNEAVALSMDDAVRLNSCAVAAQVYIGSEYEHQSIKNIIQLVDAGMKVGMPTMAVTGVGKDMVRDQRYFSLATRIAAEMGAQIIKTYYVEKGFERIVAGCPVPIVIAGGKKLPEREALEMCWQAIDQGASGVDMGRNIFQSDHPVAMMKAVQAVVHHNETADRAYELYLSEKQ | soluble
15 | MGSSHHHHHHSSGLVPRGSHMKAMNKVWVIGDASVDLVPEKQNSYLKCPGGASANVGVCVARLGGECGFIGCLGDDDAGRFLRQVFQDNGVDVTFLRLDADLTSAVLIVNLTADGERSFTYLVHPGADTYVSPQDLPPFRQYEWFYFSSIGLTDRPAREACLEGARRMREAGGYVLFDVNLRSKMWGNTDEIPELIARSAALASICKVSADELCQLSGASHWQDARYYLRDLGCDTTIISLGADGALLITAEGEFHFPAPRVDVVDTTGAGDAFVGGLLFTLSRANCWDHALLAEAISNANACGAMAVTAKGAMTALPFPDQLNTFLSSHSLAQAMTVK | soluble
16 | MKDESERVSNRLPMDESREHLMVKVARMTYQQELNQSEIAAETGLNRWQVSRLLQEARDLGIVRIEIIPRSPRRPDLETALQQTFNLNDSVVVSSDGEQAQSLDTVAQAAGQYIASIKSNGATVGVSWGRTMGAVAHWLPLQWSDGGEVVQINGTVAPISGVTYHNDVAGIFARKAGARLVPLPVPAIVGQRVTREVLERDRIVADVLTKARSAQILIFSCGSLSEESVLVRSGNILRDELATLLSKGAVGDVLGRFIDVNGEIVDAELDARTIGLSLSDLKTSGKAIGIAAGSEKFNVVLGVLRAGLVNVLVTDEATATFALEHA | not soluble
17 | MGSDKIHHHHHHMTSRTPLVSVLPDFPWDSLASAKAKAASHPDGIVNLSVGTPVDPVAPSIQIALAEAAGFSGYPQTIGTPELRAAIRGALERRYNMTKLVDASLLPVVGTKEAIALLPFALGISGTVVIPEIAYPTYEVAVVAAGCTVLRSDSLFKLGPQIPSMMFINSPSNPTGKVLGIPHLRKVVKWAQENNVILAADECYLGLGWDDENPPISILDPRVCDGDHTNLIAIHSLSKTSNLASYRAGYLVGDPALIGELTEVRKNLGLMVPFPIQQAMIAALNDDDQEAGQKLTYAIRRAKLMRALLESGFQVDNSEAGLYLWATREEPCRDTVDWFAERGILVAPGDFYGPRGAQHVRVAMTETDERVDAFVSRLS | not soluble
18 | MAHHHHHHMHDANRFGGRTAYLREIGPIDHKKKGRLFKRDLPTLQFNVDVWCAQQTLRKQWKGRDWDVVEMPFEMAPKELQRVVPEKYTDVPIMTDPARHDYMNIRRKVFDREDMQDALFASGGAGQSPYPAIQRVDKAAMTLDKYL | soluble
19 | MRGYLGKAQQNALINEAQSYPLTRPQIQVFGRYHAIPRQQVWYGDLGCDYLYSGLFIRALPWPKYLQKLRDKLQRDFELGSNGVLVNRYADGQDCMGAHSDDEPEIAHGSDIASISLGATRDFVIKHKHSKQKCCISLHSGDLLIMHWPMQRDWLHSVPKRLKVTEPRWNYTFRQLVVNYHGLEHHHHHH | not soluble
